Assay results taken from US20220332848A1 (NANJING GENSCRIPT BIOTECH, published 2022).

T1: human CTLA-4 (human, UniProt P16410 36-223)
T1 construct: whole, on cells; also called CTLA-4 antigen; cytotoxic T lymphocyte-associated antigen 4
T1 sequence (looked up): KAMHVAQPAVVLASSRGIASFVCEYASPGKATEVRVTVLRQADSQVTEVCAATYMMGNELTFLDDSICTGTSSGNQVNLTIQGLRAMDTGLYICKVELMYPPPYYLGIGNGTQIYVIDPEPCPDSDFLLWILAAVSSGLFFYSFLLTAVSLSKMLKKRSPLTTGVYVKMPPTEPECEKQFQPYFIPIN


Biological target: T1, human CTLA-4
Test: flow cytometry on CHO-K1 cells expressing CTLA-4
Protocol: For the constructed series of bispecific antibodies, the affinity of these samples with antigens was measured by using a flow cytometer. […] Then, an antibody-antigen binding curve was generated based on the geometric mean, raw data of four parameters was plotted by using the […] Prism V6.02 software, and a best fitted value program was compiled to analyze EC₅₀.

| Binder | binding result |
| --- | --- |
| bispecific antibody CTLA4-G9-LN (bispecific antibody, human IgG4 S228P, kappa, also called L2 + H0) light: EVQLVESGGGLVQPGGSLRLSCAASGYTYSRHCLGWFRQAPGKGREAVSTIDSDGSTSYADSVKGRFTISRDNAKNTLYLQMNSLRPEDTAVYYCAIGPNPRYCSGAPNTRGAEHYFGYWGQGTLVTVSSGGGGSGGGSEIVLTQSPATLSLSPGERATLSCRASENVGTYISWYQQKPGQAPRLLIYGASNRYTGIPARFSGSGSGTDFTLTISSLEPEDFAVYYCGESYGHLYTFGGGTKVEIKRTVAAPSVFIFPPSDEQLKSGTASVVCLLNNFYPREAKVQWKVDNALQSGNSQESVTEQDSKDSTYSLSSTLTLSKADYEKHKVYACEVTHQGLSSPVTKSFNRGEC heavy: not shown | binds |
| bispecific antibody CTLA4-E-HN (bispecific antibody, human IgG4 S228P, kappa, also called H2 + L0) heavy: not shown light: EIVLTQSPATLSLSPGERATLSCRASENVGTYISWYQQKPGQAPRLLIYGASNRYTGIPARFSGSGSGTDFTLTISSLEPEDFAVYYCGESYGHLYTFGGGTKVEIKRTVAAPSVFIFPPSDEQLKSGTASVVCLLNNFYPREAKVQWKVDNALQSGNSQESVTEQDSKDSTYSLSSTLTLSKADYEKHKVYACEVTHQGLSSPVTKSFNRGEC | binds |
| bispecific antibody CTLA4-G15-HC (bispecific antibody, human IgG4 S228P, kappa, also called H3 + L0) heavy: not shown light: EIVLTQSPATLSLSPGERATLSCRASENVGTYISWYQQKPGQAPRLLIYGASNRYTGIPARFSGSGSGTDFTLTISSLEPEDFAVYYCGESYGHLYTFGGGTKVEIKRTVAAPSVFIFPPSDEQLKSGTASVVCLLNNFYPREAKVQWKVDNALQSGNSQESVTEQDSKDSTYSLSSTLTLSKADYEKHKVYACEVTHQGLSSPVTKSFNRGEC | binds |
| bispecific antibody CTLA4-E-HC (bispecific antibody, human IgG4 S228P, kappa, also called H1 + L0) heavy: not shown light: EIVLTQSPATLSLSPGERATLSCRASENVGTYISWYQQKPGQAPRLLIYGASNRYTGIPARFSGSGSGTDFTLTISSLEPEDFAVYYCGESYGHLYTFGGGTKVEIKRTVAAPSVFIFPPSDEQLKSGTASVVCLLNNFYPREAKVQWKVDNALQSGNSQESVTEQDSKDSTYSLSSTLTLSKADYEKHKVYACEVTHQGLSSPVTKSFNRGEC | binds |

Results, then the binder that gave them:

| binding result | Binder |
| --- | --- |
| binds | bispecific antibody CTLA4-G15-LN (bispecific antibody, human IgG4 S228P, kappa, also called L1 + H0) light: EVQLVESGGGLVQPGGSLRLSCAASGYTYSRHCLGWFRQAPGKGREAVSTIDSDGSTSYADSVKGRFTISRDNAKNTLYLQMNSLRPEDTAVYYCAIGPNPRYCSGAPNTRGAEHYFGYWGQGTLVTVSSGGGGSGGGGSGGGGSEIVLTQSPATLSLSPGERATLSCRASENVGTYISWYQQKPGQAPRLLIYGASNRYTGIPARFSGSGSGTDFTLTISSLEPEDFAVYYCGESYGHLYTFGGGTKVEIKRTVAAPSVFIFPPSDEQLKSGTASVVCLLNNFYPREAKVQWKVDNALQSGNSQESVTEQDSKDSTYSLSSTLTLSKADYEKHKVYACEVTHQGLSSPVTKSFNRGEC heavy: not shown |
| binds | bispecific antibody CTLA4-G15-HN (bispecific antibody, human IgG4 S228P, kappa, also called H4 + L0) heavy: not shown light: EIVLTQSPATLSLSPGERATLSCRASENVGTYISWYQQKPGQAPRLLIYGASNRYTGIPARFSGSGSGTDFTLTISSLEPEDFAVYYCGESYGHLYTFGGGTKVEIKRTVAAPSVFIFPPSDEQLKSGTASVVCLLNNFYPREAKVQWKVDNALQSGNSQESVTEQDSKDSTYSLSSTLTLSKADYEKHKVYACEVTHQGLSSPVTKSFNRGEC |
